Data on 7 molecules can be found in patent US8283162 (AbbVie / Abbott, dated 2012).

Bridges are numbered along the chain shown (N, C = ends). Where no end group is shown, it is not given here.

In general, Kd refers to the constant that tells how readily two partners part at equilibrium.

Sequences and labels used below:
B1: Gla domain Protein Z peptide (sequence 16) (peptide)
peptide: LEKECYEEICVYEEA
notes: Synthetic 15-mer homologous to PIVKA-II 13-27, with plain Glu; also called PIVKAII Gla domain (13-27) analog
B2: Gla domain Protein C peptide (sequence 14) (peptide)
peptide: LERECIEEICDFEEA
notes: as for B1
B3: Gla domain Protein S peptide (sequence 15) (peptide)
peptide: LERECIEELCNKEEA
notes: as for B1
B4: Gla domain Factor X peptide (sequence 12) (peptide)
peptide: LERECMEETCSYEEA
notes: as for B1
B5: Gla domain Factor IX peptide (sequence 11) (peptide)
peptide: LERECMEEKCSFEEA
notes: as for B1
B6: Gla domain Factor VII peptide (sequence 13) (peptide)
peptide: LERECKEEQCSFEEA
notes: as for B1
B7: monoclonal antibody 3C10 (antibody, V domains shown)
VH: EVQLVESGGDLVKPGGSLKLSCAASGFTFSSYGMSWVRQTPDKRLEWVATISRGGSSTYYPDSVKGRFTISRDNAKNNLYLQMSSLKSEDTAMYYCASLNYGNFFDYWGQGTTLTVSS
VL: DVVMTQTPLSLPVSLGDQASISCRSSQSLVHSNGNTYLHWYLQKPGQSPKLLIYKVSNRFSGVPDRFSGSGSGTDFTLKISRVEAEDLGVYFCSQNRHVPPTFGGGTKLEIKR

One assay deals with B7. As to the kind of experiment: FCS competition: 2 nM Alexa488-PIVKAII (13-27) premixed with 10 nM mAb 3C10, analog peptide added, overnight; D of the tracer; negative control 47±4 (no displacement), positive control 174±10.
On to B1, for which the “Apparent Diffusion Coefficient (D)” value worked out at 51 um^2/sec. Turning to B2, the “Apparent Diffusion Coefficient (D)” value came to 53 um^2/sec.

As to B3, the “Apparent Diffusion Coefficient (D)” value stood at 50 um^2/sec.

With B4, the “Apparent Diffusion Coefficient (D)” value worked out at 52 um^2/sec.

B5: the “Apparent Diffusion Coefficient (D)” value worked out at 48 um^2/sec. For B6, the “Apparent Diffusion Coefficient (D)” value is 49 um^2/sec.

The next assay has as its target T1, Alexa-488 labeled PIVKAII Gla domain peptide (13-27) (disulfide 5-10; also: Alexa Fluor 488 label, site not given here).
T1 construct: also called Alexa488-PIVKAII peptide (13-27 cyc); Alexa488-PIVKA-II (13-27)
T1 peptide: LERECVEETCSYEEA
The assay is described as follows: fluorescence quenching titration (FRET): 0.05 nM Alexa488 PIVKAII peptide (13-27), BHQ-labelled mAb 3C10 varied, quenching against free antibody binding sites, simple binding model.
As for B7, binding was characterised by a dissociation constant (Kd) of 0.1 nM.
